Results on three molecules are retold here after paper PMC2762204 (Cancer research, 2009).

Assay [1] concerns the target FLAG-Sprouty2 co-expressed with active MEK:EE (phosphorylated) (mouse) (UniProt Q9QXV8). The assay is described as follows: pull-down.
Another assay concerns the target Myc-B-Raf wild-type (UniProt P15056 1-766). The assay is described as follows: co-IP.

Sequence of Myc-B-Raf wild-type (P15056 whole entry): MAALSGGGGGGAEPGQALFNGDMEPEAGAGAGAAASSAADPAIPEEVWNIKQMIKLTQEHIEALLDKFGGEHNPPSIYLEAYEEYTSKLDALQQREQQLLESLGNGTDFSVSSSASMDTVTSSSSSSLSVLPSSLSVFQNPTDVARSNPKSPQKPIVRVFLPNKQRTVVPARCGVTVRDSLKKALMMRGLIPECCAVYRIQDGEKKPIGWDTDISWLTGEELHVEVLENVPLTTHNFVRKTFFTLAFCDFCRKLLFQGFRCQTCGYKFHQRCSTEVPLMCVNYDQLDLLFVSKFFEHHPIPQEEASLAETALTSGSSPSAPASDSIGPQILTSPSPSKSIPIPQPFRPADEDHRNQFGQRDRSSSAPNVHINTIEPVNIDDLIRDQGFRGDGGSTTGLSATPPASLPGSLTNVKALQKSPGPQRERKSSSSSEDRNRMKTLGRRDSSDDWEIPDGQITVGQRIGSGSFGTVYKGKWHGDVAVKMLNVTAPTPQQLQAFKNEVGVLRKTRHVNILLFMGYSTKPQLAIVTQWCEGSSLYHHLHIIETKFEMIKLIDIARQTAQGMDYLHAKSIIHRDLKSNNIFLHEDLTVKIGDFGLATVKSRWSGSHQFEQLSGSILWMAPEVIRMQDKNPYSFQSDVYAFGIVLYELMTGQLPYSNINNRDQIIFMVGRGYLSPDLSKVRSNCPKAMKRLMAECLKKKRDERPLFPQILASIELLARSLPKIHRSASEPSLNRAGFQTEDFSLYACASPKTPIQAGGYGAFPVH

Consider “Recombinant human wild-type GST-B-Raf catalytic domain (domain or fragment)”, for which the percent reduction of binding against Sprouty2 expressed without MEK:EE in assay [1] was determined as 40%.

B1: FLAG-Sprouty2 2A (S111 and S120 to alanines) (natural protein, mouse, UniProt Q9QXV8 1-315, looked up)
chain: MEARAQSGNGSQPLLQTAHDSGRQRGEPDPRDALTQQVHVLSLDQIRAIRNTNEYTEGPTVVPRPGLKPAPRPSTQHKHERLHGLPEHRQPPRLQPSQVHSSRAPLSRSIATVSSGSRSATRTSTSSSSSEQRLLGPSFSHGPAAADGIIRVQPKSELKPGDVKPLSKDDLGLHAYRCEDCGKCKCKECTYPRPLPSDWICDKQCLCSAQNVIDYGTCVCCVKGLFYHCSNDDEDNCADNPCSCSQSHCCTRWSAMGVMSLFLPCLWCYLPAKGCLKLCQGCYDRVNRPGCRCKNSNTVCCKVPTVPPRNFEKPT
Regarding B1, in the assay with Myc-B-Raf wild-type, the “fold change of B-Raf binding against wild-type Sprouty2” value is ~2 fold.

B2: FLAG-Sprouty2 6A (all six serine sites to alanines) (natural protein, mouse, UniProt Q9QXV8 1-315, looked up)
chain: MEARAQAGNGSQPLLQTAHDSGRQRGEPDPRDALTQQVHVLALDQIRAIRNTNEYTEGPTVVPRPGLKPAPRPSTQHKHERLHGLPEHRQPPRLQPSQVHSSRAPLSRSIATVSSGSRSATRTSTSSSSSEQRLLGPSFAHGPAAADGIIRVQPKSELKPGDVKPLAKDDLGLHAYRCEDCGKCKCKECTYPRPLPSDWICDKQCLCSAQNVIDYGTCVCCVKGLFYHCSNDDEDNCADNPCSCSQSHCCTRWSAMGVMSLFLPCLWCYLPAKGCLKLCQGCYDRVNRPGCRCKNSNTVCCKVPTVPPRNFEKPT
In the case of B2, the “fold change of B-Raf binding against wild-type Sprouty2” value with Myc-B-Raf wild-type was ~3.5 fold.
